B1: NAD-dependent protein deacetylase sirtuin-1 (Homo sapiens), Q96EB6 (parent)
chain: MADEAALALQPGGSPSAAGADREAASSPAGEPLRKRPRRDGPGLERSPGEPGGAAPEREVPAAARGCPGAAAAALWREAEAEAAAAGGEQEAQATAAAGEGDNGPGLQGPSREPPLADNLYDEDDDDEGEEEEEAAAAAIGYRDNLLFGDEIITNGFHSCESDEEDRASHASSSDWTPRPRIGPYTFVQQHLMIGTDPRTILKDLLPETIPPPELDDMTLWQIVINILSEPPKRKKRKDINTIEDAVKLLQECKKIIVLTGAGVSVSCGIPDFRSRDGIYARLAVDFPDLPDPQAMFDIEYFRKDPRPFFKFAKEIYPGQFQPSLCHKFIALSDKEGKLLRNYTQNIDTLEQVAGIQRIIQCHGSFATASCLICKYKVDCEAVRGDIFNQVVPRCPRCPADEPLAIMKPEIVFFGENLPEQFHRAMKYDKDEVDLLIVIGSSLKVRPVALIPSSIPHEVPQILINREPLPHLHFDVELLGDCDVIINELCHRLGGEYAKLCCNPVKLSEITEKPPRTQKELAYLSELPPTPLHVSEDSSSPERTSPPDSSVIVTLLDQAAKSNDDLDVSESKGCMEEKPQEVQTSRNVESIAEQMENPDLKNVGSSTGEKNERTSVAGTVRKCWPNRVAKEQISRRLDGNQYLFLPPNRYIFHGAEVYSDSEDDVLSSSSCGSNSDSGTCQSPSLEEPMEDESEIEEFYNGLEDEPDVPERAGGAGFGTDGDDQEAINEAISVKQEVTDMNYPSNKS
partner: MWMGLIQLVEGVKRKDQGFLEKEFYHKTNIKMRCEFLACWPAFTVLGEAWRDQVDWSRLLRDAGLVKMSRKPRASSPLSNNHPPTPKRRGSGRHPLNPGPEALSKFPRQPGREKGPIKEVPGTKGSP

Variants of: B1
Conditions: with csag2_human CSAG2, Q9Y5P2

| Variant | effect of a mutation on the interaction |
| --- | --- |
| H363Y | decreasing interaction |

Reference: IntAct's records for PubMed 32761762
